Values of other authors in article PMC9363672.

Molecular target: syndecan 3 (Homo sapiens) (UniProt O75056)
Chain of UniProt O75056 (O75056 whole entry): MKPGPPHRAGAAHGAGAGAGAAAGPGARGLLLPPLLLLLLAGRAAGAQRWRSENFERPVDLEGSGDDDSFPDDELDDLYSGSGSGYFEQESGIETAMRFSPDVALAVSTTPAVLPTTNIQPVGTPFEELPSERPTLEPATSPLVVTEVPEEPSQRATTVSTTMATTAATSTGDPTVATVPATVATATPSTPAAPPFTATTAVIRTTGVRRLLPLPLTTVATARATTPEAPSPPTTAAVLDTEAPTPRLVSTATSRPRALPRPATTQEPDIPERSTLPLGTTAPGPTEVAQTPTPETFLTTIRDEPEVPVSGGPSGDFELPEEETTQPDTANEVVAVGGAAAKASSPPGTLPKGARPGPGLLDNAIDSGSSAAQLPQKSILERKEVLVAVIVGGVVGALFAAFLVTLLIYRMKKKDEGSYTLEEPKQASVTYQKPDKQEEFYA

For pleiotrophin (from UniProt P21246), the Kd is listed as 6 nM.
